The DeepSol protein solubility set

Test: soluble on expression in E. coli; label from the status in PepcDB or PDB records

Row | Sequence | soluble on expression in E. coli
1 | MAHHHHHHMIPHICVNAANYSHTQFEECLTHMCDLSEELSAFKRTAVSLKRQATGDAETSKLALQYMEEALEKVLHVTQGVKEGNKTIGTAAAVKKSVIEAKIASDIADEEASKVERKLDKATRDAGNAEKNLQRILIYTARKACSSEGISSQDEEVKEAQCNVSTEIVYSCTRRPLKIKSDTLRKTYERLKSFTRTPNKTINEHLPKCHMWTELLEPAVASLTDMEKSASVARAYRNQVIKARGEAQQAAWTVGVTVQDVDGLDEVSEEDDFALAPVVLVAVLIVGAVLIDQHP | not soluble
2 | MAHHHHHHMKENYMIRHLFKKYGLKCYNSMSKGLLSNIRNGNSIVLYEKNVNKNLMNLLYKKHYNTYKNRVFNSAMYNNTPSNYMNNPENNNMNHLQNNSNYKYENPNNYYQPKYNNNLNNETNENNTTYQYFSIFGSTAMCLIKPIFPDYITNKNKVTIYGKGGFQFVFMRKQSNSNKYDKNNKMNIFIKINSLSNVLSLNDVEKLKNPIIIKGSNNNYLTIDKHKEKKDHIVIKYKYQPSNSPENNFNDMNNMDTDINENMIINDVNDEKRNNFEELHVSFSFSEFLLFQKAANLLLPQLIGWAKQY | not soluble
3 | MAHHHHHHMKKASKNSNYHGLEKSLRRRGGKIKTIYEKYKDIDFQNIIDEKIKYVWNYINNIDDIISDEEFLKEEIKQKLEKKQSLKKNDDFDEIIYYNKNVKNLINIQKVRKALYHFNIKVDMEDIMHMFLYYTNQDYFLKFIQNNIYSKNYVERKMDKYKFTSININNLYINYEMFKFIFLNIDMNIEQNGQMW | not soluble
4 | MAHHHHHHMKKRTPLVGKRSYFTSLYDTKTEKTKLISEMDDLYDHILTSNWNDSVHLVLNVSIWEGILHSIEARIKPYEQDEDILKKKKMINEMFDVLFILEDLRDHVNELLEQSSRASGLAGTYILASFKIENMVEHIEFLKAKYDELLLKYPLYKYQIDMVLGKGLALLRQRYTFEWRHMHDFFF | not soluble
5 | MAHHHHHHMKLPYAKLEKHSRPVRCVHAEYGCTMLFCSVRCRQAGWSRFHFAGCPGAMMSDQRDAYDEFIHHDWEYRGVDYSDTVFLAFRFVCMAVTNIRLHRQSLELAYRPIAQLIKAPLSFFHFTYLFYREEADSTEKKGRGEKQIEKLRLIRWEAFRKFRATHMSTTENDTTDDFLATGMTLLGRILRFTQEECTLFTVARWSELLGAVLLNGQERSPPSNYDRLKELVRRLPCGESTMDAFEQEVQMAGNELQHLRQSSRGQGVYTVGCLFNHSCEPNLQVVYSESGDETLSVVALRDIEPGEELCISYIDESLSYPERQQELYEHYLFFCQCPKCEREAAAWEPIEPCEEVLSSAYTFSQLY | not soluble
6 | MAHHHHHHMKNFFILHLRNNYSIFLNKPLQVFTLNVKLNSHVKVNYKHELLTYEFRKITYVKKKKKKSYHNCDGRYITTLNKTININEKYSKLKNDGLLNSTPDNHIKDNIIKEDLLYRKNNEKENEEVIKSNIDENKNVHMNDQNEQNKHCYNKLLIESCCHIDKDVKKSLLEIFQYKEFTDVQRIVYDNIIKEKKQNDLLIQAKTGTGKTIAYLLLSINDIIKNKILSVHTLIIVPTRELANQIYNECKLLLTYKHNINVLTLTGGIKRRDDQLNIRRIKPDIIICTVGRLLDHFESTYLFNTLFENLKMLIIDEADQLLSTGYENDIHRLLTYLPSNRRNILLSATLGYNLDEIRKKMCKSDYIYLNCVKDISKHTSDQLIQYVLFHKAIDTTIILYNLLIEHMRLNQFTYKIIVFFPTARATSFYAQFFINQLKISVYEIHRKKEMAHRQITANRFSMESVGILFTSDISSRGLNYPDITLIIQVNTPISREQYIHRVGRTARSNKKGMAIILLNEADELFYQEIKDLNIQKLNAQNYTLKNTNLSNYLSTWMSNTQLLYLAYAYYSSILRFYKTKYTHLKINDDEIIDAVNNMLLSTGLVEQPYISRNLATTLNMQNNVKLKIRKDLDDILLL | not soluble
7 | MAHHHHHHMKNKNKYDYLLKLLLVGDSSVGKSSILCRYSDNQFEEKVLSTIGIDFKVKYLKIDNKTIKVGIWDTAGQERFRTLTSAYYRNAHAIILVYDCTVRESFENLDVWINEIDKYSTNKNAIKMLVANKIDKPNHEVTKDEGKNFAFENNMLFCETSAKNDINITYCFEELIQQILNNPSLLELSIVTKNLKLGKKEESRSNCAC | soluble
